Reference: paper PMC9697831 (2022)
No end group written: not given here. enterokinase site = enterokinase site: N-terminal 6xHis-tag carrying an enterokinase cleavage site; factor Xa site = factor Xa site: N-terminal 6xHis-tag carrying a factor Xa cleavage site

The binders below were run against Kv1.3 (Homo sapiens, UniProt P22001) (assay: whole-cell patch clamp).
Kv1.3, sequence (P22001 whole entry): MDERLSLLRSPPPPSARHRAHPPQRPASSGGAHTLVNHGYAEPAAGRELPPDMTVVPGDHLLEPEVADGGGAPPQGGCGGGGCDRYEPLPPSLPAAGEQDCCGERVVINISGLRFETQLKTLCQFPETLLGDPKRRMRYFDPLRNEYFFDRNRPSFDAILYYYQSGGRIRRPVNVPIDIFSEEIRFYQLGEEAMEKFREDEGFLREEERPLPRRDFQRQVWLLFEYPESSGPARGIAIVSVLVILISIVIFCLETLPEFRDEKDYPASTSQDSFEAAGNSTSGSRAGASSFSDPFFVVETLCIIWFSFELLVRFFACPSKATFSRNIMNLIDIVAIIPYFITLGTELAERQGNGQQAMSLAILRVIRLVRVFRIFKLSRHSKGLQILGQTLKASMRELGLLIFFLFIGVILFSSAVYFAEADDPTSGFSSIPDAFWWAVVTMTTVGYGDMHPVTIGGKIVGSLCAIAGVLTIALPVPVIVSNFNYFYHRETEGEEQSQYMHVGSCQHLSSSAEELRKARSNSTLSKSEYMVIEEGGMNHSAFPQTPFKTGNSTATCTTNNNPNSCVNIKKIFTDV
For QKECTGPQHCTNFCRKNKCTHGKCMNRKCKCFNCK [Anuroctoxin (Untag-AnTx)], the Kd was 0.72 nM.
For QKECTGPQHCTNFCRKNKCTHGKCMNRKCKCFNCK (N-terminal 6xHis-tag with enterokinase site) [Anuroctoxin (Tag-AnTx)], the Kd was 1.29 nM.
For {6xHis tag-enterokinase site}-WCSTCLDLACGASRECYDPCFKAFGRAHGKCMNNKCRCYT (disulfide (positions not given here); ends not checked) [Ts6 (Tag-Ts6)], the Kd was 887 nM.
Work on {6xHis tag-factor Xa site}-AAAISCVGSPECPPKCRAQGCKNGKCMNRKCECYYC (disulfide (positions not given here); ends not checked) [Vm24 (Tag-Vm24)] yielded a Kd of 0.0044 nM.
WCSTCLDLACGASRECYDPCFKAFGRAHGKCMNNKCRCYT [Ts6 (Untag-Ts6)] showed a Kd of 29.1 nM.
